We go through 2 sequences from article PMC10536698.

The series concerns CcpA (Streptococcus agalactiae GD201008-001), ORF:5b4dc1e2. The experiment in a line: EMSA. The note with it: EMSA: 20 mM Tris-HCl pH 7.5, 30 mM KCl, 1 mM DTT, 1 mM EDTA, 10% glycerol, 20 uL, 30 min at 37 C; 10% PAGE in 0.5x TBE on ice. On the technique in general: A gel shift assay detects complexes by their altered migration in electrophoresis.

Take “AAGTTTTCTCCTTTTGTATTACATTCTAGAGACTAAAGGAGATGTTGAAAATTTCTCCTAATCCCTTTAAATAACATTCTAATCATATCATAAATGTCTATAATTTTAAATTGTGAAAACGCCTTTTTTATGATAAACTTAAAAGTGGACTTTCTATATGAAATCTAGAAAAAAATTGAGGTATAAAC (double strand) [luxS promoter]”: the binding entry was “binds”.
Take “AGTATTTGTAAAAGCTAATCTTTAGATTAGGCTTTTTTAGTTTATTGATAGTTTTTGGAAGAAAATGCTTGACATTGAAAGAAAAAGAGATATAATTAAATTGCAAACGATTTCAATTCAAGGAGGGAC (double strand) [fruRKI promoter]”: the binding entry is listed as “binds”.
